Assays:
Assay in all cases: MST
[1] = molecular target: RSV postfusion F (Respiratory syncytial virus) (UniProt P03420+P03420); settings: T in primer region unmodified, MST: PBS, 0.05% Tween 20, 25 C, 10-20 nM Cy5-aptamer, AlphaScreen: PBS with mucin 10 mg/L, BSA 1 mg/ml, salmon sperm DNA 1 mg/L, RT, 10 nM biotin-aptamer …
[2] = tested on: Influenza H1 hemagglutinin S106 DS26r (Influenza virus H1); settings: every U is TAdU (5-[(3-indolyl)propionamide-N-allyl]-2'-deoxyuridine); all sugars deoxyribose; T in primer region unmodified; MST: PBS, 0.05% Tween 20, 25 C, 10-20 nM Cy5-aptamer; AlphaScreen: PBS with mucin 10 mg/L, BSA 1 mg/ml, salmon sperm DNA 1 mg/L, RT, 10 nM biotin-aptamer …
[3] = molecular target: hMPV prefusion F v3B (Human metapneumovirus) (UniProt Q6WB98); settings: every U is TAdU (5-[(3-indolyl)propionamide-N-allyl]-2'-deoxyuridine); all sugars deoxyribose; T in primer region unmodified; MST: PBS, 0.05% Tween 20, 25 C, 10-20 nM Cy5-aptamer; AlphaScreen: PBS with mucin 10 mg/L, BSA 1 mg/ml, salmon sperm DNA 1 mg/L, RT, 10 nM biotin-aptamer …
Chain of hMPV prefusion F v3B (Human metapneumovirus) (Q6WB98 whole entry, the tested form may be a part): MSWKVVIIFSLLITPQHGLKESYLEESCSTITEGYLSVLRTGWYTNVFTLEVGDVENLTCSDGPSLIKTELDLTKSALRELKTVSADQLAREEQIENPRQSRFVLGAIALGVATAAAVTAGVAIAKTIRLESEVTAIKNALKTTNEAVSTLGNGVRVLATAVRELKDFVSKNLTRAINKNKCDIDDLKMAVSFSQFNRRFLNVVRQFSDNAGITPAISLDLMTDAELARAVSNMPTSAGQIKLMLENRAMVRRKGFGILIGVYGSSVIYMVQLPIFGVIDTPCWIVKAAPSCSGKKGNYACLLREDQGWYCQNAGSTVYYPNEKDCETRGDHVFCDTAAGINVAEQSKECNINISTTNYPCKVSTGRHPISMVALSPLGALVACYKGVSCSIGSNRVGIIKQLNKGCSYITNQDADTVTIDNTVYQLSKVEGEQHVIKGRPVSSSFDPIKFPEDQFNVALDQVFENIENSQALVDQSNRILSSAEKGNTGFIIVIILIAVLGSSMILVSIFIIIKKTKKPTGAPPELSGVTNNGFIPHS

Sequence	Kd ([1]; every U is TAdU (deoxy)) [µM]	Kd [2] [µM]	Kd ([1]; every U is TAdU (5-[(3-indolyl)propionamide-N-allyl]-2'-deoxyuridine), all sugars deoxyribose) [µM]	Kd [3] [µM]
GATCGAGCCAGCTACGTCAGUUAUGGUAUAGGUUGGUGGUGGGGGGGGGUUGUGGUGGGACAUGCCUCAGCGACUA [B1]	3.99			
GATCGAGCCAGCTACGTCAUGCUGUCAAUGGGUGGGUGUGGUGGGGUUGAUGUUAUGUGACAUGCCUCAGCGACUA [A2]		14.7	0.994	6.95
GATCGAGCCAGCTACGTCAUGGUUGGGAGGUGUUGUGGGGAUGGUGGGUGGGAGUAUGACAUGCCUCAGCGACUA [D4]	2.76			

— article PMC10251311
